From article PMC12395051 come the findings set out here.

The target of experiment [1] is Recombinant SARS-CoV-2 spike (S) protein (SARS-CoV-2) (UniProt P0DTC2).
For experiment [2] the target is unchanged. The source holds these as a separate data set.

Take “Human complement factor H (from UniProt P08603 19-1231) (natural protein)”: the cell binding assay: binding of SARS-CoV-2 S lentiviral pseudoparticles pre-treated with FH (20 ug/ml) to A549-hACE2+TMPRSS2 cells, decrease against untreated pseudoparticles in experiment [1] amounted to 35%. Further, the luciferase reporter activity: entry of SARS-CoV-2 S lentiviral pseudoparticles pre-treated with FH (20 ug/ml) into A549-hACE2+TMPRSS2 cells, reduction against untreated pseudoparticles in experiment [2] came to 25%.
As to “Human native properdin (from UniProt P27918 28-469) (natural protein)”, the cell binding assay: binding of SARS-CoV-2 S lentiviral pseudoparticles pre-treated with FP (20 ug/ml) to A549-hACE2+TMPRSS2 cells, increase against untreated pseudoparticles in experiment [1] was 30%. Further, the luciferase reporter activity: entry of SARS-CoV-2 S lentiviral pseudoparticles pre-treated with FP (20 ug/ml) into A549-hACE2+TMPRSS2 cells, increase against untreated pseudoparticles in experiment [2] came to 80%.
